The target of assay [1] is T1, recombinant human sPLA2-V (human, UniProt P39877 21-138).
T1 construct: The cDNA for the mature enzyme was cloned in frame to an initiator Met codon; also called hGV; human PLA2-V
T1 sequence: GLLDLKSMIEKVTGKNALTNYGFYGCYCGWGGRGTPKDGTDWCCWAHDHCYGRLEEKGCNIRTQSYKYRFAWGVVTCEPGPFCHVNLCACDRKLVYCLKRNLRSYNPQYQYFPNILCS
Briefly: indirect ELISA on coated recombinant human sPLA2-V, anti-mouse IgG-HRP detection, one-site saturation fit. (In general: An ELISA detects its analyte on a solid surface through an enzyme-linked reagent.)

Assay [2] concerns the target T1, recombinant human sPLA2-V. The assay is described as follows: indirect ELISA on coated recombinant human sPLA2-V, one-site saturation fit (relative Kd).
Assay [3] concerns the target T1, recombinant human sPLA2-V. Briefly: indirect ELISA on coated recombinant human sPLA2-V, streptavidin-HRP detection, one-site saturation fit.

Usually Kd stands for the constant that tells how readily two partners part at equilibrium.

B1: 19F3 antibody (antibody, V domains shown)
VH: EVQLQLSGADLVKPGASVKLSCTASGFNIKDSYIHWVKQRPEPGLEWIGRIDPANGNTKYDPKFQGKATITADTSSNTAYLQLTSLTSEDTAVYYCARDVVALDYWGQGTTLTVSS
VL: QIVLTQSPAIMSASPGEKVTMTCSASSSVSYMYWYQQKPGSSPRLLIYDTSNLASGVPVRFSGSGSGTSYSLTISRMEAEDAATYYCQQWSSYPLTFGAGTKLELKR
notes: also called mAb #19F3; hybridoma CNCM I-4522
B1: the figures for the Kd in assay [1] and in assay [2] were 0.089 nM and 0.0842 nM, respectively.

B2: biotinylated monoclonal antibody #19F3 (antibody, V domains shown)
VH: EVQLQLSGADLVKPGASVKLSCTASGFNIKDSYIHWVKQRPEPGLEWIGRIDPANGNTKYDPKFQGKATITADTSSNTAYLQLTSLTSEDTAVYYCARDVVALDYWGQGTTLTVSS
VL: QIVLTQSPAIMSASPGEKVTMTCSASSSVSYMYWYQQKPGSSPRLLIYDTSNLASGVPVRFSGSGSGTSYSLTISRMEAEDAATYYCQQWSSYPLTFGAGTKLELKR
modifications: biotinylated with a Pierce kit (ref. 21435); sites not stated
notes: also called #19F3-Biot; 19F3-Biot
As for B2, the Kd in assay [3] came to 0.0082 nM.

B3: biotinylated monoclonal antibody #18G6 (antibody, V domains shown)
VH: QVQLQQSGPELVKPGASVKMSCKASGYTFTDYVITWVKQRTGQGLEWIGEIYPGSGSTYYDEKFKGKATLTADKSSNTAYMQLSSMTSEDSAVYFCARWFPYFDYWGQGTTLTVSS
VL: QIVLTQSPAIMSASPGEKVTISCSASSSVSYMYWYQQKPGSSPKPWIYRTSNLASGVPARFSGSGSGTSYSLTISSMEAEDAATYYCQQYHSYPLTFGAGTKLELKR
modifications: biotinylated with a Pierce kit (ref. 21435); sites not stated
notes: also called #18G6-Biot; 18G6-Biot
For B3, the equilibrium dissociation constant (Kd) in assay [3] worked out at 0.31 nM.

B4: 18G6 antibody (antibody, V domains shown)
VH: QVQLQQSGPELVKPGASVKMSCKASGYTFTDYVITWVKQRTGQGLEWIGEIYPGSGSTYYDEKFKGKATLTADKSSNTAYMQLSSMTSEDSAVYFCARWFPYFDYWGQGTTLTVSS
VL: QIVLTQSPAIMSASPGEKVTISCSASSSVSYMYWYQQKPGSSPKPWIYRTSNLASGVPARFSGSGSGTSYSLTISSMEAEDAATYYCQQYHSYPLTFGAGTKLELKR
notes: also called mAb #18G6; hybridoma CNCM I-4521
Turning to B4, the Kd in assay [1] turned out to be 0.53 nM; in assay [2], 0.305 nM.

Values taken from US20140356379A1 (CENTRE NATIONAL DE LA RECHERCHE SCIENTIQUE CNRS, published 2014).
